Experimental findings from US11045520B2, “Compositions and methods for topical delivery of pharmaceutical agents” (priority 2016, dated 2021) are described below.

For one data set, the system named is human skin. Kind of data set: Franz cell diffusion apparatus assay, ETA-treated vs control skin (Example 3). Particulars: ETA-treated human skin compared to non-treated control, 24 hours. The class given is in vitro ADME. As to the method: Permeation experiments with Franz diffusion cells were performed using human skin. The Franz diffusion cells were made of glass with a contact area of 1.35 cm^2, consisting of a donor compartment and a receptor compartment. The skin was mounted between the cell compartments and 2 O-ring shaped glasses were used to position the skin epidermis side-up and dermis side-down. The two cell compartments were held together with a clamp. […] It was kept at 37° C. on a heated plate. After 30 minutes of equilibration of the skin with the receptor solution, 200 μl of the drug solution was applied in the donor compartment with a pipet. The donor compartment was then covered with parafilm to prevent evaporation of the solvent. The receptor solution was continuously stirred using a spinning bar magnet at 200 rpm. Receptor solution samples, 0.2 ml aliquots, were withdrawn through the sampling port of the receptor compartment at various time intervals. The cells were refilled with a same amount of receptor solution to keep the volume of receptor solution constant during the experiment. The experiments were run for 24 hours. The fluorescent intensities collected from receptor compartments from normal and desquamated skin were compared over time using a spectrophotometer. […]

Data set [1] has as its system human skin explants or xenograted human skin. The data set is described as follows: Confocal imaging of fluorescent dye distribution in ETA-desquamated skin (Example 2). Conditions: for skin permeability after removal of S.C. by ETA: ETA 100 μg/mL treated vs untreated skin. As for the experimental part:
Human skin samples were fixed in 10% formaldehyde overnight and then embedded in paraffin. Samples were cut using a microtome to a thickness of 6 μM and baked on slides for 1 hour in a dry heat incubator at 58° C. Nuclei and eosinophillic structures were visualized by hematoxylin and eosin staining, respectively. The hematoxylin stains nuclei blue and eosins stains eosinophillic structures different shades of red. Histological images were taken with an inverted microscope.
The skin was either subjected to no treatment or application of ETA at 100 μg/mL.
To image the distribution of each dye in the human skin, human skin specimens were collected at 6, 12, 18 and 24 hours. Ordinary skin with intact S.C. and desquamated skin using ETA (methods previously described) were used. Frozen sections of human skin specimens were cut using a microtome to a thickness of 7 μM and DAPI was used for counter staining. Skin imaging was carried out at room temperature using Nikon confocal microscope equipped with NIS-Elements AR 3.10 software.

For data set [2], the system named is skin epidermis and dermis. Kind of data set: Removal of S.C. by various methods and possible damage (FIG. 12). The source says:
FIGS. 12A (panel a-d) and 12B depict removal of S.C. by various methods and possible damage. […] Even more damage to the dermis and epidermis are seen in skin treated by dermabrasion (panel d). In FIG. 12A, single headed arrow points to the epidermis and double headed arrows show clefting between epidermis and dermis.
Fractional laser treatment lead to unavoidable heat damage on the side of the holds that each radiated beam made.

The subject of data set [3] is Stratum Corneum of human skin explants. The data set is described as follows: ETA desquamation of Stratum Corneum on human skin explants, H&E histology (Example 1). As for the experimental part:
ETA was mixed with 10 mM PIPES at pH 6.5, 10 mM HEPES at pH 7.4, or 10 mM Tris at pH 8.0, at concentrations ranging from 25-1000 μg/mL. Each condition was also done separately as controls. These solutions were applied to human skin explants, obtained and prepared as follows. Human skin specimens were obtained from consenting patients undergoing abdominoplasty. Under a sterile condition, the tissue was placed and washed in a 70% ethanol solution and cold PBS. Fat layers were removed from the tissue, leaving a millimeter of dermis and an intact epidermis. The tissue was then cut into 10 mm×10 mm pieces and placed on gels composed of keratinocyte media supplemented with Human Keratinocyte Growth Supplement purchased from Invitrogen, and mixed in a 1:1 ratio with 2% agarose. The samples were stored at 37° C. in 5% CO2.
ETA solutions were incubated on top of the skin for 4 hours. Each buffer condition was also done separately without the presence of ETA as controls. […] That is to say, Stratum Corneum layer was peeled off mechanically with sterile gauze.
Histological images were taken with an inverted microscope.

Data set [4] relates to Stratum Corneum, human skin explant model. The data set is described as follows: ETA desquamation after acetone and/or thioglycolate cream pre-treatment (Example 4). The text has this:
FIG. 7 panels a-d depict decreased desquamation time for the removal of S.C. by ETA on the human skin specimen(s) following thioglycolate cream pre-treatment. Samples either received no treatment (panel a), ETA only (panel b), treated with thioglycolate cream only (panel c), ETA and thioglycolate cream (panel d). The depictions are of live confocal imaging of skin. Images are focusing on the horizontal plane at the most superficial levels. Lighter areas depict areas where DAPI dye has entered the epidermis and staining on the Nuclei of the cells. […] Natural folds in skin surface produce “waves” of staining in these planar-focused live images. The waves of staining are seen in panel b, with about 20%-30% of the area stained, and about 90%-95% of the area stained in panel d (“unstained” regions in panel d are skin folds). However when S.C. is present (panels a and c), DAPI cannot penetrate cells, and is shielded from cellular uptake by the S.C., staining is seen to be less than about 10% in panels a and c.
In order to decrease the incubation time of ETA, the following conditions were additionally evaluated:
Studies were carried out in a human skin explant model using surgical abdominal skin specimens.
Lipid Extraction: The S.C. layer consists of lipids and therefore, acetone was selected as a pre-treatment to dissolve or at least disrupt the lipid structure of the S.C.
Protein Denaturation: The S.C. layer also contains keratin proteins. Keratins can be broken down by thioglycolate, which breaks down rigid disulfide bonds. Samples were pre-treated with thioglycolate cream to break down the keratin layer of the S.C. As a result, the incubation time of ETA was shortened (FIG. 7).
Combination Lipid Extraction and Protein Denaturation: With the pre-treatment of acetone and a thioglycolate cream, separation of S.C. started as early as 2 to 2.5 hours.

The subject of the next data set is human skin explants. Kind of data set: Injected versus topically applied ETA, damage after 24 hours (Example 6). As to the method:
FIG. 10 panels a-h depict the effect of injected and topically applied ETA in a series of concentrations between 5 and 1000 ug/mL after 24 hours.
Damage caused by intra-dermal injection of ETA was compared to normal control skin and topically applied ETA control. A very high concentration of ETA (500 μg/mL) was intra-dermally injected into human skin explants (prepared as described in Example 1) and observed after 24 hours. […] In contrast, methods of the invention topically apply ETA only to the outside surface of skin.

For data set [5], the system named is xenograft human skin in SCID mice. The data set is described as follows: Recovery of S.C. after ETA, serial confocal DAPI staining. Format: in vivo. The text has this: FIG. 11 panels a-i depict DAPI staining on nuclei in an S.C. removed area compared to control (intact S.C.), highlighting the recovery of the S.C. layer over time after the application of ETA on human xenografted skin on mice. […] Day 7-9 and 10-11 (panels e, f) show even less nuclei.
Regarding healing kinetics, using a xenograft human skin in SCID mice model, the healing of removed S.C. was completed within 2 weeks as determined by serial confocal observation of DAPI staining on xenograft skin. With confocal microscope and DAPI staining, the recovery of the S.C. can be observed, as described. DAPI is known to be a fluorescent stain that can pass through the cell membrane and bind strongly to A-T rich regions in DNA, thereby staining the nuclei of cells. With intact S.C., the signal from DAPI cannot be detected by confocal microscope due to the refraction of light against the S.C. as well as the limitation of the depth of light penetration. On the other hand, desquamated skin can produce DAPI signals within cells. DAPI can stain the nuclei of epidermis as long as epidermis remains desquamated. Under inhalation anesthesia, xenografted mouse was taped down on the observatory plates and the xenografted skin was imaged using confocal microscopy. DAPI signal was obtained at baseline and every other day after ETA-mediated desquamation occurred.

Where [6] appears, read: intra-dermally injected, ETA 500 μg/mL, 24 hours.

For the molecule `CCN(CC)c1ccc2c(-c3ccc(S(=O)(=O)O)cc3S(=O)(=O)[O-])c3ccc(=[N+](CC)CC)cc-3oc2c1` [Sulforhodamine, sulforhodamine B], the “skin permeability, fluorescence in receptor compartment” value with human skin is given as “increase in skin permeability”.

In the case of “human recombinant insulin: FITC tagged human recombinant insulin (5000 Da)”, the “skin permeability after removal of S.C. by ETA” value in data set [1] was “substantially increased”. Moreover, in data set [1] (toxin treated skin), the “time to penetration of the dye” value was not above 6 h, the “penetration of the dye at 12 hours” value is “some dye penetration” and the “penetration of the dye at 24 hours” value is “extensively into the dermis”. Moreover, in data set [1] (toxin treated skin, listed as FITC-insulin), the “penetration of the dye at 24 hours” value is “deep penetration of the dye”.

Regarding `O=C(O)CO` [glycololic acid, glycolic acid], in data set [2] (20% for 1-3 minutes), the “epidermal or dermal injury” value is “epidermal damage and clefting of the dermal-epidermal junction (DEJ)”. Besides, the “injury by chemical peeling” value in data set [2] is reported as “uncontrolled or unavoidable additional injury to epidermis”.

In the case of `CCNc1cc2[s+]c3cc(N(CC)CC)ccc3nc2c2ccccc12.[Cl-]` [EtNBS], the “skin permeability after removal of S.C. by ETA” value in data set [1] is on record as “substantially increased”. Also, in data set [1] (toxin treated skin), the “penetration of the dye at 12 hours” value is given as “penetrating past the epidermis” and the “penetration of the dye at 24 hours” value was “penetrated further”.

Turning to `O=C(O)c1ccccc1O` [salicylic acid], the “injury by chemical peeling” value in data set [2] is recorded as “uncontrolled or unavoidable additional injury to epidermis”. Besides, the “epidermal or dermal injury” value in data set [2] (topical 30%) is “damage to the epidermis”.

B1: ETA: protease that cleaves the extracellular portion of desmoglein-1 (Dsg1); Staphylococcus aureus, SEQ ID NO: 01/02 (protein, listed as Staphylococcus aureus)
chain: MNNSKIISKVLLSLSLFTVGASAFVIQDELMQKNHAKAEVSAEEIKKHEEKWNKYYGVNAFNLPKELFSKVDEKDRQKYPYNTIGNVFVKGQTSATGVLIGKNTVLTNRHIAKFANGDPSKVSFRPSINTDDNGNTETPYGEYEVKEILQEPFGAGVDLALIRLKPDQNGVSLGDKISPAKIGTSNDLKDGDKLELIGYPFDHKVNQMHRSEIELTTLSRGLRYYGFTSVPGNSGSGIFNSNGELVGIHSSKVSHLDREHQINYGVGIGNY
For B1, the “effect of buffer on desquamation speed” value in data set [3] (10 mM Tris buffer pH 8.0) was “no effect”. The “time to remove the S.C.” value in data set [3] (ETA 50 μg/mL) is not above 12 h. Further, the “S.C. removal, histology (FIG. 1 panel d)” value in data set [3] (ETA 50 μg/mL, serial time points up to 12 hours) is “sub-corneal cleavage and the complete removal of the S.C”. Further, the “incubation time at which efficacy was achieved” value in data set [3] (ETA 1000 μg/mL, buffered pH 6.5 solution) is listed as “about 3 hours”. Moreover, the “time to desquamation of the Stratum Corneum” value in data set [3] (ETA between 5 and 25 μg/mL, topical) is not above 24 h. Further, the “damage to the rest of the epidermis or the dermis” value in data set [3] (ETA between 5 and 25 μg/mL, within 24 hours) was “without damaging the rest of the epidermis or the dermis”. Also, the “time to completely remove the S.C.” value in data set [3] (pH 6.5) worked out at 4 h. Also, the “desquamation (FIG. 2 panel d)” value in data set [3] (pH 6.5 PIPES buffer, 4 hours) is recorded as “total desquamation”. For the same molecule, the “desquamation (FIG. 2 panel b)” value in data set [3] (pH 7.4 HEPES buffer, 4 hours) was “some desquamation”. Also, in data set [4] (ETA 50 μg/mL, without pre-treatment), the incubation usually expected is 4 to 8 h. The “area stained by DAPI (FIG. 7 panel d)” value in data set [4] (ETA and thioglycolate cream) is recorded as 90%-95%. For the same molecule, the “area stained by DAPI (FIG. 7 panel b)” value in data set [4] (ETA only) is listed as 20%-30%. Also, the “change of reaction time after ETA application” value in data set [4] (acetone pre-treatment) is recorded as “slight decrease in reaction time”. For the same molecule, the “time at which separation of S.C. started” value in data set [4] (pre-treatment of acetone and a thioglycolate cream) is 2 to 2.5 h. Also, the “time of almost complete removal of S.C.” value in data set [4] (pre-treatment of acetone and a thioglycolate cream, ETA 50 μg/mL) was 3 h. In data set [4] (thioglycolate cream pre-treatment), the “change of incubation time of ETA” value is “shortened”. Moreover, the “damage to the epidermis or underlying dermis” value in the data set with human skin explants (setting [6]) is listed as “no serious damage”. Further, the exfoliation entry in the data set on human skin explants (setting [6]) is reported as “more wide spread exfoliation”. Further, the histological effect entry in the data set on human skin explants (intradermal injection, ETA 5 μg/mL, 24 hours) is given as “desquamation”; in the data set on human skin explants (intradermal injection, ETA 50 μg/mL, 24 hours), “desquamation”; in the data set with human skin explants (intradermal injection, ETA 500 μg/mL, 24 hours) it was “clefting at the dermal-epidermal junction (DEJ)”; in the data set with human skin explants (intradermal injection, ETA 1000 μg/mL, 24 hours) it was “clefting at the dermal-epidermal junction (DEJ)”; with human skin explants (topical application, ETA 5 μg/mL, 24 hours) it was “no change”; in the data set with human skin explants (topical application, ETA 50 μg/mL, 24 hours), “desquamation”. Besides, the histological effect entry with human skin explants (topical application, ETA 500 μg/mL, 24 hours) is given as “desquamation”; in the data set on human skin explants (topical application, ETA 1000 μg/mL, 24 hours), “desquamation”. Further, the “effect compared with intra-dermal injection” value in the data set with human skin explants (topical ETA 50 μg/mL for 24 hours) is “much more modest effect”. The results for the “DAPI staining of nuclei” value in data set [5] (Day 12 after ETA) and in data set [5] (Days 1-3 after ETA) were “no nuclei” and “significant DAPI staining”, respectively. Also, the “time to completed healing of removed S.C.” value in data set [5] (after ETA-mediated desquamation) is given as not above 2 weeks. The “re-formation of intact Stratum Corneum complete” value in data set [5] (after application of ETA) is not above 15 days. In addition, the “epidermal or dermal injury” value in data set [2] (controlled removal of S.C. using ETA) is “no epidermal or dermal injury”.
